According to patent publication US20250339569A1 (3B PHARMACEUTICALS, published 2025):
Values belong to the binder of their own block, whether it stands above or below them. Starred links: 1 amine or outer side, 2 acyl side, 3 side chain; linkers in the order of their positions; H or OH if unused. Positions of bridges follow the written chain, without caps; N, C: chain ends. Non-standard residues stand in square brackets, D forms with d. Groups on a side chain read outwards from the residue. Primed or numbered codes have the meaning given here. No end group written: not given here. *: point of attachment. DOTA = O=C(O)CN1CCN(CC(=O)O)CCN(CC(=O)*)CCN(CC(=O)O)CC1; Trp(5-Cl) = N[C@@H](Cc1c[nH]c2ccc(Cl)cc12)C(=O)O; Trp(5-OH) = N[C@@H](Cc1c[nH]c2ccc(O)cc12)C(=O)O; Desaminotyrosyl = O=C(CCc1ccc(O)cc1)*; mXylylene = c1cc(C[*:1])cc(C[*:2])c1; Bta = N[C@@H](Cc1csc2ccccc12)C(=O)O; Tic = O=C(O)[C@@H]1Cc2ccccc2CN1; Isovaleryl = CC(C)CC(=O)*; Apr = not defined here; AEEA = NCCOCCOCC(=O)O; Aib = CC(C)(N)C(=O)O; Ttds″ = Ttds spacer; Sar = CNCC(=O)O

Legend:
[1] = target: T1, human carbonic anhydrase 9 (CAIX) (human, UniProt Q16790 38-459); assay: FACS competition on HT-29 cells against tracer 3BP-2776; pIC50 category B = pIC50 7.1-8.0
Protocol: (§1) CAIX-expressing human HT-29 colorectal cancer cells (DSMZ, RRID: CVCL_0320) were cultured in McCoys's 5A modified medium (Biochrom, #F1015) including 10% fetal calf serum (FCS), 2 mM L-glutamine, 100 U/ml penicillin and 100 μg/mL streptomycin. Cells were detached with Accutase (Biolegend, #423201) and washed in FACS buffer (PBS including 1% FCS). Cells were diluted in FACS buffer to a final concentration of 500.000 cells per ml. 200 μL of the cell suspension were transferred to a u-shaped non-binding 96-well plate (Greiner) and cells were washed in ice-cold FACS buffer.
(§2) When biotinylated compounds were used an additional incubation step with 1 μg/mL APC-Streptavidin (Miltenyi; #130-106-791) in 50 μL FACS buffer for 30 minutes on ice was performed.
(§3) Cells were washed twice with ice-cold FACS buffer and analyzed in an Attune NxT flow cytometer (Thermo Fisher). Median fluorescence intensities (MFI) of the APC/Cy5-channel were calculated by Attune NxT software.

[2] = target: T1, human carbonic anhydrase 9 (CAIX); assay: FACS competition on HT-29 cells against tracer 3BP-2776; pIC50 category C = pIC50 6.1-7.0
Protocol: as §1, §2, §3

pIC50 [1]: 7.1 to 8 pic50
B1: 3BP-3741 (peptide)
peptide: Isovaleryl-RCE[dP]DWLTWE([Apr-AEEA-DOTA])C-NH2
modifications: linker 2-11 via 3MeBn; reading uncertain
notes: also called Iva-Arg-[Cys(3MeBn)-Glu-pro-Asp-Trp-Leu-Thr-Trp-Glu(NH-Apr-O2Oc-DOTA′)-Cys]-NH2

pIC50 [1]: 7.1 to 8 pic50
B2: 3BP-3872 (peptide)
peptide: Isovaleryl-ECE[dP]DWLTWE([Apr-AEEA-DOTA])C-NH2
modifications: linker 2-11 via mXylylene; reading uncertain
notes: also called Iva-Glu-[Cys(3MeBn)-Glu-pro-Asp-Trp-Leu-Thr-Trp-Glu(NH-Apr-O2Oc-DOTA′)-Cys]-NH2

pIC50 [1]: 7.1 to 8 pic50
B3: 3BP-3871 (peptide)
peptide: Isovaleryl-DCE[dP]DWLTWE([Apr-AEEA-DOTA])C-NH2
modifications: linker 2-11 via mXylylene; reading uncertain
notes: also called Iva-Asp-[Cys(3MeBn)-Glu-pro-Asp-Trp-Leu-Thr-Trp-Glu(NH-Apr-O2Oc-DOTA′)-Cys]-NH2

pIC50 [2]: 6.1 to 7 pic50
B4: 3BP-3061 (peptide)
peptide: Ac-VYCEG[Aib]WLTWQC-NH2
modifications: linker 3-12 via mXylylene
SMILES: CC(=O)N[C@H](C(=O)N[C@@H](Cc1ccc(O)cc1)C(=O)N[C@H]1CSCc2cccc(c2)CSC[C@@H](C(N)=O)NC(=O)[C@H](CCC(N)=O)NC(=O)[C@H](Cc2c[nH]c3ccccc23)NC(=O)[C@H]([C@@H](C)O)NC(=O)[C@H](CC(C)C)NC(=O)[C@H](Cc2c[nH]c3ccccc23)NC(=O)C(C)(C)NC(=O)CNC(=O)[C@H](CCC(=O)O)NC1=O)C(C)C
notes: also called Ac-Val-Tyr-[Cys(3MeBn)-Glu-Gly-Aib-Trp-Leu-Thr-Trp-Gln-Cys]-NH2

pIC50 [2]: 6.1 to 7 pic50
B5: 3BP-3045 (peptide)
peptide: Ac-VYC[dE]GDWLTWQC-NH2
modifications: linker 3-12 via mXylylene
SMILES: CC(=O)N[C@H](C(=O)N[C@@H](Cc1ccc(O)cc1)C(=O)N[C@H]1CSCc2cccc(c2)CSC[C@@H](C(N)=O)NC(=O)[C@H](CCC(N)=O)NC(=O)[C@H](Cc2c[nH]c3ccccc23)NC(=O)[C@H]([C@@H](C)O)NC(=O)[C@H](CC(C)C)NC(=O)[C@H](Cc2c[nH]c3ccccc23)NC(=O)[C@H](CC(=O)O)NC(=O)CNC(=O)[C@@H](CCC(=O)O)NC1=O)C(C)C

pIC50 [2]: 6.1 to 7 pic50
B6: 3BP-3315 (peptide)
peptide: Ac-VYCE[Sar]DWLT[Bta]QC-NH2
modifications: linker 3-12 via mXylylene
SMILES: CC(=O)N[C@H](C(=O)N[C@@H](Cc1ccc(O)cc1)C(=O)N[C@H]1CSCc2cccc(c2)CSC[C@@H](C(N)=O)NC(=O)[C@H](CCC(N)=O)NC(=O)[C@H](Cc2csc3ccccc23)NC(=O)[C@H]([C@@H](C)O)NC(=O)[C@H](CC(C)C)NC(=O)[C@H](Cc2c[nH]c3ccccc23)NC(=O)[C@H](CC(=O)O)NC(=O)CN(C)C(=O)[C@H](CCC(=O)O)NC1=O)C(C)C
notes: also called Ac-Val-Tyr-[Cys(3MeBn)-Glu-Nmg-Asp-Trp-Leu-Thr-Bta-Gln-Cys]-NH2

pIC50 [2]: 6.1 to 7 pic50
B7: 3BP-3047 (peptide)
peptide: Ac-VYCEG[dD]WLTWQC-NH2
modifications: linker 3-12 via mXylylene
SMILES: CC(=O)N[C@H](C(=O)N[C@@H](Cc1ccc(O)cc1)C(=O)N[C@H]1CSCc2cccc(c2)CSC[C@@H](C(N)=O)NC(=O)[C@H](CCC(N)=O)NC(=O)[C@H](Cc2c[nH]c3ccccc23)NC(=O)[C@H]([C@@H](C)O)NC(=O)[C@H](CC(C)C)NC(=O)[C@H](Cc2c[nH]c3ccccc23)NC(=O)[C@@H](CC(=O)O)NC(=O)CNC(=O)[C@H](CCC(=O)O)NC1=O)C(C)C
notes: also called Ac-Val-Tyr-[Cys(3MeBn)-Glu-Gly-asp-Trp-Leu-Thr-Trp-Gln-Cys]-NH2

pIC50 [2]: 6.1 to 7 pic50
B8: 3BP-3049 (peptide)
peptide: Ac-VYCEGDWL[dT]WQC-NH2
modifications: linker 3-12 via mXylylene
SMILES: CC(=O)N[C@H](C(=O)N[C@@H](Cc1ccc(O)cc1)C(=O)N[C@H]1CSCc2cccc(c2)CSC[C@@H](C(N)=O)NC(=O)[C@H](CCC(N)=O)NC(=O)[C@H](Cc2c[nH]c3ccccc23)NC(=O)[C@@H]([C@H](C)O)NC(=O)[C@H](CC(C)C)NC(=O)[C@H](Cc2c[nH]c3ccccc23)NC(=O)[C@H](CC(=O)O)NC(=O)CNC(=O)[C@H](CCC(=O)O)NC1=O)C(C)C
notes: also called Ac-Val-Tyr-[Cys(3MeBn)-Glu-Gly-Asp-Trp-Leu-thr-Trp-Gln-Cys]-NH2

pIC50 [2]: 6.1 to 7 pic50
B9: 3BP-3312 (peptide)
peptide: Ac-VYCE[Sar]DWLT[Trp(5-Cl)]QC-NH2
modifications: linker 3-12 via mXylylene
SMILES: CC(=O)N[C@H](C(=O)N[C@@H](Cc1ccc(O)cc1)C(=O)N[C@H]1CSCc2cccc(c2)CSC[C@@H](C(N)=O)NC(=O)[C@H](CCC(N)=O)NC(=O)[C@H](Cc2c[nH]c3ccc(Cl)cc23)NC(=O)[C@H]([C@@H](C)O)NC(=O)[C@H](CC(C)C)NC(=O)[C@H](Cc2c[nH]c3ccccc23)NC(=O)[C@H](CC(=O)O)NC(=O)CN(C)C(=O)[C@H](CCC(=O)O)NC1=O)C(C)C
notes: also called Ac-Val-Tyr-[Cys(3MeBn)-Glu-Nmg-Asp-Trp-Leu-Thr-5Clw-Gln-Cys]-NH2

pIC50 [1]: 7.1 to 8 pic50
B10: 3BP-3572 (peptide)
peptide: Ac-V[Tic]CE[dP]DWLTWSC-NH2
modifications: linker 3-12 via mXylylene
SMILES: CC(=O)N[C@H](C(=O)N1Cc2ccccc2C[C@H]1C(=O)N[C@H]1CSCc2cccc(c2)CSC[C@@H](C(N)=O)NC(=O)[C@H](CO)NC(=O)[C@H](Cc2c[nH]c3ccccc23)NC(=O)[C@H]([C@@H](C)O)NC(=O)[C@H](CC(C)C)NC(=O)[C@H](Cc2c[nH]c3ccccc23)NC(=O)[C@H](CC(=O)O)NC(=O)[C@H]2CCCN2C(=O)[C@H](CCC(=O)O)NC1=O)C(C)C
notes: also called Ac-Val-Tic-[Cys(3MeBn)-Glu-pro-Asp-Trp-Leu-Thr-Trp-Ser-Cys]-NH2

pIC50 [1]: 7.1 to 8 pic50
B11: 3BP-3731 (peptide)
peptide: Desaminotyrosyl-CE[dP]DWLTWSC-NH2
modifications: linker 1-10 via 3MeBn
notes: also called 4OHPhp-[Cys(3MeBn)-Glu-pro-Asp-Trp-Leu-Thr-Trp-Ser-Cys]-NH2

pIC50 [2]: 6.1 to 7 pic50
B12: 3BP-3310 (peptide)
peptide: Ac-VYCE[Sar]D[Trp(5-OH)]LTWQC-NH2
modifications: linker 3-12 via mXylylene
SMILES: CC(=O)N[C@H](C(=O)N[C@@H](Cc1ccc(O)cc1)C(=O)N[C@H]1CSCc2cccc(c2)CSC[C@@H](C(N)=O)NC(=O)[C@H](CCC(N)=O)NC(=O)[C@H](Cc2c[nH]c3ccccc23)NC(=O)[C@H]([C@@H](C)O)NC(=O)[C@H](CC(C)C)NC(=O)[C@H](Cc2c[nH]c3ccc(O)cc23)NC(=O)[C@H](CC(=O)O)NC(=O)CN(C)C(=O)[C@H](CCC(=O)O)NC1=O)C(C)C
notes: also called Ac-Val-Tyr-[Cys(3MeBn)-Glu-Nmg-Asp-Hyw-Leu-Thr-Trp-Gln-Cys]-NH2

pIC50 [1]: 7.1 to 8 pic50
B13: 3BP-3053 (peptide)
peptide: Ac-VYCEGAWLTWQC-NH2
modifications: linker 3-12 via mXylylene
SMILES: CC(=O)N[C@H](C(=O)N[C@@H](Cc1ccc(O)cc1)C(=O)N[C@H]1CSCc2cccc(c2)CSC[C@@H](C(N)=O)NC(=O)[C@H](CCC(N)=O)NC(=O)[C@H](Cc2c[nH]c3ccccc23)NC(=O)[C@H]([C@@H](C)O)NC(=O)[C@H](CC(C)C)NC(=O)[C@H](Cc2c[nH]c3ccccc23)NC(=O)[C@H](C)NC(=O)CNC(=O)[C@H](CCC(=O)O)NC1=O)C(C)C

pIC50 [1]: 7.1 to 8 pic50
B14: 3BP-3056 (peptide)
peptide: Ac-VYCEGDWLAWQC-NH2
modifications: linker 3-12 via mXylylene
SMILES: CC(=O)N[C@H](C(=O)N[C@@H](Cc1ccc(O)cc1)C(=O)N[C@H]1CSCc2cccc(c2)CSC[C@@H](C(N)=O)NC(=O)[C@H](CCC(N)=O)NC(=O)[C@H](Cc2c[nH]c3ccccc23)NC(=O)[C@H](C)NC(=O)[C@H](CC(C)C)NC(=O)[C@H](Cc2c[nH]c3ccccc23)NC(=O)[C@H](CC(=O)O)NC(=O)CNC(=O)[C@H](CCC(=O)O)NC1=O)C(C)C

pIC50 [1]: 7.1 to 8 pic50
B15: 3BP-3278 (peptide)
peptide: {DOTA-Ttds″}-VYCE[Sar]DWLTWAC-NH2
modifications: linker 3-12 via mXylylene; not fully specified
notes: also called DOTA-Ttds-Val-Tyr-[Cys(3MeBn)-Glu-Nmg-Asp-Trp-Leu-Thr-Trp-Ala-Cys]-NH2

pIC50 [1]: 7.1 to 8 pic50
B16: 3BP-3328 (peptide)
peptide: VYCEGDWLTWQC-NH2
modifications: linker 3-12 via mXylylene; not fully specified (N-terminus); also: indium complexed by DOTA

pIC50 [2]: 6.1 to 7 pic50
B17: 3BP-3048 (peptide)
peptide: Ac-VYCEGDW[dL]TWQC-NH2
modifications: linker 3-12 via mXylylene
SMILES: CC(=O)N[C@H](C(=O)N[C@@H](Cc1ccc(O)cc1)C(=O)N[C@H]1CSCc2cccc(c2)CSC[C@@H](C(N)=O)NC(=O)[C@H](CCC(N)=O)NC(=O)[C@H](Cc2c[nH]c3ccccc23)NC(=O)[C@H]([C@@H](C)O)NC(=O)[C@@H](CC(C)C)NC(=O)[C@H](Cc2c[nH]c3ccccc23)NC(=O)[C@H](CC(=O)O)NC(=O)CNC(=O)[C@H](CCC(=O)O)NC1=O)C(C)C
notes: also called Ac-Val-Tyr-[Cys(3MeBn)-Glu-Gly-Asp-Trp-leu-Thr-Trp-Gln-Cys]-NH2

pIC50 [1]: 7.1 to 8 pic50
B18: 3BP-3502 (peptide)
peptide: Ac-VYCE[dP]DW[Aib]TWAC-NH2
modifications: linker 3-12 via mXylylene
SMILES: CC(=O)N[C@H](C(=O)N[C@@H](Cc1ccc(O)cc1)C(=O)N[C@H]1CSCc2cccc(c2)CSC[C@@H](C(N)=O)NC(=O)[C@H](C)NC(=O)[C@H](Cc2c[nH]c3ccccc23)NC(=O)[C@H]([C@@H](C)O)NC(=O)C(C)(C)NC(=O)[C@H](Cc2c[nH]c3ccccc23)NC(=O)[C@H](CC(=O)O)NC(=O)[C@H]2CCCN2C(=O)[C@H](CCC(=O)O)NC1=O)C(C)C
notes: also called Ac-Val-Tyr-[Cys(3MeBn)-Glu-pro-Asp-Trp-Aib-Thr-Trp-Ala-Cys]-NH2
